The values below are quoted from earlier work in patent US20250333489A1 (ANDREMACON S.R.L., priority 2021, published 2025).

The target of the series is T1, EphB4 (Homo sapiens, UniProt P54760).
T1 sequence (P54760 16-987): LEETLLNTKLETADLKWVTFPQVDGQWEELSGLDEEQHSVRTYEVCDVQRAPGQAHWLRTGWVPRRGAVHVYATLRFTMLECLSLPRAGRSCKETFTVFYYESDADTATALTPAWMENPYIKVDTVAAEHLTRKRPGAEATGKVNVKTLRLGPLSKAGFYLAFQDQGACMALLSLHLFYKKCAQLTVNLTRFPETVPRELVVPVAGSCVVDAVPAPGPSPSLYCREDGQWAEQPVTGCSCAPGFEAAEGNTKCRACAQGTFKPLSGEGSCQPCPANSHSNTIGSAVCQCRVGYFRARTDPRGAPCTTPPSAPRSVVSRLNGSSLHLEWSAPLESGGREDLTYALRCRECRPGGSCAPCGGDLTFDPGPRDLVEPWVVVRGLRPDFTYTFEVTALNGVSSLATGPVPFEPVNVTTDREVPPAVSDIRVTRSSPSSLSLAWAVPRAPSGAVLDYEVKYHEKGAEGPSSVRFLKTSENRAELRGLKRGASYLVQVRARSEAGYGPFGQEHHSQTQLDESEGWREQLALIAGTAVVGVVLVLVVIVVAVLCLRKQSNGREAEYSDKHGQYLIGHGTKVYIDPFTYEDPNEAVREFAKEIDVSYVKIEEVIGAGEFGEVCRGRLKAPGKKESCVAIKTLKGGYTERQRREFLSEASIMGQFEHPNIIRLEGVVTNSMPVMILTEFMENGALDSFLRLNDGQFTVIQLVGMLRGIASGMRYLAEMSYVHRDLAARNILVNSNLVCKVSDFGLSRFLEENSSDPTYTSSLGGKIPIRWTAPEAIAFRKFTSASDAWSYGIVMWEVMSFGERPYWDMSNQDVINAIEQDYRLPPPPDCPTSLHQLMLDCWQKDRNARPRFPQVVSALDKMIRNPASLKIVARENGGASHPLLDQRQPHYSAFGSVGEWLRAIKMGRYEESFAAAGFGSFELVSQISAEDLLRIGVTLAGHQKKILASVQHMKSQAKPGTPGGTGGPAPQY
As to conditions: read-out: binding affinity of Epo for EphB4 (KD).

With “Epo: 30.4 kDa glycoprotein produced and secreted mainly by the kidneys; main erythropoietic hormone”, the Kd is 880 nM.

A word on the Kd: it is the free concentration of one partner at which half of the binding sites on the other are occupied at equilibrium, for simple one-to-one binding.
